Measurements from paper PMC8630228.
Several values for one entry are separate records, joined by “and”; a condition that tells them apart may be missing. Identical values can stand only once.

Biological target: precursor δ-latroinsectotoxin (full-length precursor δ-LIT) (Latrodectus tredecimguttatus)
Experiment: cryo-EM, reference-free 2D classification of particles; full-length δ-LIT at 0.4 mg/ml on holey carbon grids; particles sorted into monomer, dimer, trimer and tetramer classes

**Q.** What does the source list for “precursor δ-latroinsectotoxin (full-length precursor δ-LIT) (natural protein)”?
**A.** percent of particles that are dimers: 50%; percent of particles that are tetramers: 2.5%; percent of particles that are trimers: 2.5%; stoichiometry N: 2 and 3 and 4
